Test results reported in the RNAGym collection of RNA variant scans (doi:10.1021/acssynbio.7b00057).

B1: Pistol ribozyme (parent)
chain: GGGUCGUUGUUCCAUAAUCGCGUGGAUAUGGCACGCAAGUUUCUACCGGGCACCGUAAAUGUCCGACUGGAGCCGUUCGGGCGGCUAUAAACAGACCUCAGGCCCGAAGCGUGGCGGCACCUGCCGCCGGUGGUAAAAAAGAUCGGAAGAGCACACGUCU

Variants of: B1
Assay: aptazyme ON/OFF ratio, guanine; higher = stronger switching; co-transcriptional cleavage with and without guanine

| Variant | aptazyme ON/OFF ratio |
| --- | --- |
| GGGUCGGGAUACAAUAAUCGCGUGGAUAUGGCACGCAAGUUUCUACCGGGCACCGUAAAUGUCCGACUGGAGCCGUUCGGGCGGCUAUAAACAGACCUCAGGCCCGAAGCGUGGCGGCACCUGCCGCCGGUGGUAAAAAAGAUCGGAAGAGCACACGUCU [U7G U8G G9A U11A C13A] | 1.35 |
| GGGUCGGGAUACGAUAAUCGCGUGGAUAUGGCACGCAAGUUUCUACCGGGCACCGUAAAUGUCCGACUGGAGCCGUUCGGGCGGCUAUAAACAGACCUCAGGCCCGAAGCGUGGCGGCACCUGCCGCCGGUGGUAAAAAAGAUCGGAAGAGCACACGUCU [U7G U8G G9A U11A C13G] | 1.06 |
| GGGUCGGGAUACUAUAAUCGCGUGGAUAUGGCACGCAAGUUUCUACCGGGCACCGUAAAUGUCCGACUGGAGCCGUUCGGGCGGCUAUAAACAGACCUCAGGCCCGAAGCGUGGCGGCACCUGCCGCCGGUGGUAAAAAAGAUCGGAAGAGCACACGUCU [U7G U8G G9A U11A C13U] | 1.11 |
| GGGUCGGGAUAUGAUAAUCGCGUGGAUAUGGCACGCAAGUUUCUACCGGGCACCGUAAAUGUCCGACUGGAGCCGUUCGGGCGGCUAUAAACAGACCUCAGGCCCGAAGCGUGGCGGCACCUGCCGCCGGUGGUAAAAAAGAUCGGAAGAGCACACGUCU [U7G U8G G9A U11A C12U C13G] | 1.12 |
| GGGUCGGGAUAUUAUAAUCGCGUGGAUAUGGCACGCAAGUUUCUACCGGGCACCGUAAAUGUCCGACUGGAGCCGUUCGGGCGGCUAUAAACAGACCUCAGGCCCGAAGCGUGGCGGCACCUGCCGCCGGUGGUAAAAAAGAUCGGAAGAGCACACGUCU [U7G U8G G9A U11A C12U C13U] | 1.22 |
| GGGUCGGGAUAUAAUAAUCGCGUGGAUAUGGCACGCAAGUUUCUACCGGGCACCGUAAAUGUCCGACUGGAGCCGUUCGGGCGGCUAUAAACAGACCUCAGGCCCGAAGCGUGGCGGCACCUGCCGCCGGUGGUAAAAAAGAUCGGAAGAGCACACGUCU [U7G U8G G9A U11A C12U C13A] | 1.15 |
| GGGUCGGGAUCAUAUAAUCGCGUGGAUAUGGCACGCAAGUUUCUACCGGGCACCGUAAAUGUCCGACUGGAGCCGUUCGGGCGGCUAUAAACAGACCUCAGGCCCGAAGCGUGGCGGCACCUGCCGCCGGUGGUAAAAAAGAUCGGAAGAGCACACGUCU [U7G U8G G9A U11C C12A C13U] | 1.41 |
| GGGUCGGGAUCAGAUAAUCGCGUGGAUAUGGCACGCAAGUUUCUACCGGGCACCGUAAAUGUCCGACUGGAGCCGUUCGGGCGGCUAUAAACAGACCUCAGGCCCGAAGCGUGGCGGCACCUGCCGCCGGUGGUAAAAAAGAUCGGAAGAGCACACGUCU [U7G U8G G9A U11C C12A C13G] | 1.15 |
| GGGUCGGGAUCAAAUAAUCGCGUGGAUAUGGCACGCAAGUUUCUACCGGGCACCGUAAAUGUCCGACUGGAGCCGUUCGGGCGGCUAUAAACAGACCUCAGGCCCGAAGCGUGGCGGCACCUGCCGCCGGUGGUAAAAAAGAUCGGAAGAGCACACGUCU [U7G U8G G9A U11C C12A C13A] | 1.39 |
| GGGUCGGGAUCUAAUAAUCGCGUGGAUAUGGCACGCAAGUUUCUACCGGGCACCGUAAAUGUCCGACUGGAGCCGUUCGGGCGGCUAUAAACAGACCUCAGGCCCGAAGCGUGGCGGCACCUGCCGCCGGUGGUAAAAAAGAUCGGAAGAGCACACGUCU [U7G U8G G9A U11C C12U C13A] | 1.31 |
| GGGUCGGGAUCCCAUAAUCGCGUGGAUAUGGCACGCAAGUUUCUACCGGGCACCGUAAAUGUCCGACUGGAGCCGUUCGGGCGGCUAUAAACAGACCUCAGGCCCGAAGCGUGGCGGCACCUGCCGCCGGUGGUAAAAAAGAUCGGAAGAGCACACGUCU [U7G U8G G9A U11C] | 1.54 |
| GGGUCGGGAUACCAUAAUCGCGUGGAUAUGGCACGCAAGUUUCUACCGGGCACCGUAAAUGUCCGACUGGAGCCGUUCGGGCGGCUAUAAACAGACCUCAGGCCCGAAGCGUGGCGGCACCUGCCGCCGGUGGUAAAAAAGAUCGGAAGAGCACACGUCU [U7G U8G G9A U11A] | 2.46 |
| GGGUCGGGAGGUAAUAAUCGCGUGGAUAUGGCACGCAAGUUUCUACCGGGCACCGUAAAUGUCCGACUGGAGCCGUUCGGGCGGCUAUAAACAGACCUCAGGCCCGAAGCGUGGCGGCACCUGCCGCCGGUGGUAAAAAAGAUCGGAAGAGCACACGUCU [U7G U8G G9A U10G U11G C12U C13A] | 1.71 |
| GGGUCGGGAGGUGAUAAUCGCGUGGAUAUGGCACGCAAGUUUCUACCGGGCACCGUAAAUGUCCGACUGGAGCCGUUCGGGCGGCUAUAAACAGACCUCAGGCCCGAAGCGUGGCGGCACCUGCCGCCGGUGGUAAAAAAGAUCGGAAGAGCACACGUCU [U7G U8G G9A U10G U11G C12U C13G] | 1.27 |
| GGGUCGGGAGGUUAUAAUCGCGUGGAUAUGGCACGCAAGUUUCUACCGGGCACCGUAAAUGUCCGACUGGAGCCGUUCGGGCGGCUAUAAACAGACCUCAGGCCCGAAGCGUGGCGGCACCUGCCGCCGGUGGUAAAAAAGAUCGGAAGAGCACACGUCU [U7G U8G G9A U10G U11G C12U C13U] | 1.11 |
| GGGUCGGGAUCGUAUAAUCGCGUGGAUAUGGCACGCAAGUUUCUACCGGGCACCGUAAAUGUCCGACUGGAGCCGUUCGGGCGGCUAUAAACAGACCUCAGGCCCGAAGCGUGGCGGCACCUGCCGCCGGUGGUAAAAAAGAUCGGAAGAGCACACGUCU [U7G U8G G9A U11C C12G C13U] | 1.35 |
| GGGUCGGGAUCGAAUAAUCGCGUGGAUAUGGCACGCAAGUUUCUACCGGGCACCGUAAAUGUCCGACUGGAGCCGUUCGGGCGGCUAUAAACAGACCUCAGGCCCGAAGCGUGGCGGCACCUGCCGCCGGUGGUAAAAAAGAUCGGAAGAGCACACGUCU [U7G U8G G9A U11C C12G C13A] | 1.21 |
| GGGUCGGGAUCGGAUAAUCGCGUGGAUAUGGCACGCAAGUUUCUACCGGGCACCGUAAAUGUCCGACUGGAGCCGUUCGGGCGGCUAUAAACAGACCUCAGGCCCGAAGCGUGGCGGCACCUGCCGCCGGUGGUAAAAAAGAUCGGAAGAGCACACGUCU [U7G U8G G9A U11C C12G C13G] | 1.11 |
